Test: yeast display, Sf9 membrane polyspecificity reagent, FACS + sequencing; frameworks hold sequencing errors
Procedure, shortened: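 A nanobody's polyreactivity label depends on the gate it was sorted from. Yeast display cells were stained with 10% biotinylated, detergent-solubilized Sf9 membrane reagent for 1 hour at 4 °C, enriched on streptavidin microbeads and sorted by FACS. The low and high (top ~1%) gates were set on anti-HA fluorescence for expression and streptavidin fluorescence for reagent binding.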
With “QVQLVESGGGLVHAGGSLRLSCAASGRTFCGYAMGRYRHAPGKERELVATNSYSSGSTYYADSVKGRFTISRDNAMNTVYLQMNSLTPEDTAVYYCAARIRYFYRYDYWGQGTQVTVSS” the “polyreactivity (PSR sort gate)” value was “high polyreactivity”. With “QVQLVESGGGLVHAGGSLRLSCAASGRTFKIYAMGWYRQAPGKERELVATISWRGGSTYYADSVKGRFTISRDNAKNTVYLQMNSLKPEDTAVYYCAKALYVAGSAYRAGYGVRYDYWGQGTQVTVSS” the “polyreactivity (PSR sort gate)” value was “low polyreactivity”. In the case of “QVQLVESGGGLVHAGGSLRLSCAASGRTFPTNAMGWYRQSPGKDRELVAAISWSGGGTYYADSVKGRFTISRDNAKNTIYLQMNSLKPEDTAVYYCAADDTPDTIYGSDYWGQGTQVTVSS”, the “polyreactivity (PSR sort gate)” value is reported as “low polyreactivity”. For “QVQLVESGGGLVHAGGSLRLSCAASGRTFRDNVMGWSRQAPGKERELVAAISRSGGSTYYADSVKGRFTISRDNAKHTVYLQMNSQKPEDTAVYYSNAPYYVRSQYTFDYWGQGTQVTVSS”, the “polyreactivity (PSR sort gate)” value was “high polyreactivity”. With “QVQLVESGGGLVHAGGSLRLSCAASGRTFRYYTMGWYRQAPGKEREFVAAISSTGGTYYADSVKGRFTISRDNAKNTVYLQMNSLKPEDTAVYYCAATFIQVVVNVQLYDYDYWGQGTQVTVSS” the “polyreactivity (PSR sort gate)” value was “low polyreactivity”. For “QVQLVESGGGLVHAGGSLRLSCAASGSIFFIYAMGGYRPAPGTERELVARISQGGASPYYADSVKGRFTISRDNAKTTVYLQMNSLKPEDTVVYYCAAGYTNTRLRPKGYGYYYWGQGTQVTVSW”, the “polyreactivity (PSR sort gate)” value was “high polyreactivity”. For “QVQLVESGGGLVHAGGSLRLSCAASGSIFFQYGMGWYRHAPGKEREYVAAISVSGGSTYYADSVKGRFTISRDNAKNSVYLQMNSLKPEDTAVYYCAADGSTDYVYSPPIDEYDFWGQGTQVTVSS”, the “polyreactivity (PSR sort gate)” value was “low polyreactivity”. With “QVQLVESGGGLVHAGGSLRLSCAASGSIFGYYTMGWYRQAPGKERELDAAITSGGSTNYADSVKGRFTISRDNAKNTVYLEMNSLKPEDTAVYYCAKVSYYPWRYDDWGQGTKVTVSS” the “polyreactivity (PSR sort gate)” value was “low polyreactivity”. With “QVQLVESGGGLVHAGGSLRLSCAASGSIFKPYVMGWYRQAPGKERELVAAITTSGVRTYYADSVKGRFTISRDNAKNTVYLQMNSLKPEDTAVYYCATRRWSWPQFRTGDYWGQGTQVTVSS” the “polyreactivity (PSR sort gate)” value was “high polyreactivity”. For “QVQLVESGGGLVHAGGSLRLSCAASGSIFNYYAMGWYRQAPGKERELVAAISYGTGSTYYADSVKWRFTISRDNAKNTDYLQMNSLKPEDTAVYYCAADTRYGYGYWGQGTQVTVSS”, the “polyreactivity (PSR sort gate)” value was “high polyreactivity”. For “QVQLVESGGGLVHAGGSLRLSCAASGSIFPDNTMGWYRQAPGKERELVAAIDGRGGTTYYADSVKGRFTISRDNAKNTVYLQMNSLKPEDTAVYYCARDIGHSARYDYWGQGTQVTVSS”, the “polyreactivity (PSR sort gate)” value was “low polyreactivity”. With “QVQLVESGGGLVHAGGSLRLSCAASGSIFTGYAMGWYRQAPGKERELVAAIDYRSGSTYYADSVKGRFTISRDNAKNTVYLQMNSLKPEDTAVYYCAAPAGWGFDEAFGYGYWGQGTQVTVSS” the “polyreactivity (PSR sort gate)” value was “low polyreactivity”. In the case of “QVQLVESGGGLVHAGGSLRLSCAASGSIFVWNAMGWYRQAPGKERELVARIRYSSNTYYADSVKGRFTISRDNAKNNVYLQMTSLKPEDTAVYYCAAGSTRYAGWTYNYWGQGTHVTVSS”, the “polyreactivity (PSR sort gate)” value is reported as “high polyreactivity”. With “QVQLVESGGGLVHAGGSLRLSCAASGSIYYAYAMGGYRQAPGKERELVATITWNGDSTYYADSVKGRFTISLDNAKNTVYLQMNSLKPEDTAVYYCAARYRWPIPGTQYEYWGQGTQVTVSS” the “polyreactivity (PSR sort gate)” value was “low polyreactivity”. In the case of “QVQLVESGGGLVHAGGSLRLSCAASGSNFNINAMGWYRQAPGKERELVAAITTSGGRTYYSDSVKGRFTISRDNAKNTVYLQMNSLKPEDTAVYYCNARHLPGSRSWRWITYDYWGQGTQVTVSS”, the “polyreactivity (PSR sort gate)” value is reported as “low polyreactivity”. With “QVQLVESGGGLVHAGGSLRLSCAASGSTFGRYTMGWYRQAPGKERELVAAISYSSGRTYYADSVKGRFTISRDNGKNTVYLQMNSLKAEDSAVYYCAAVSRGRGEYDYWGQGTQVTVSS” the “polyreactivity (PSR sort gate)” value was “high polyreactivity”. With “QVQLVESGGGLVHAGGSLRLSCAASGSTFLPNVMGWYRQAPGTERELVAANSSRGGRTYYADSVKGRFTISRDNAKNTVYLQMNSLKPEDTAVYYCAAYTRDTTGSAGIYRDDYWGQGTQVTVSS” the “polyreactivity (PSR sort gate)” value was “high polyreactivity”. For “QVQLVESGGGLVHAGGSLRLSCAASGSTFSRNVMVWYRQAPGKEWELVAAISRGGSTNYADSVKGRFTISRENAKNTVYLQMKSLKPEDTAVYYCNAPRLGKFYNWGQGTQVTVSS”, the “polyreactivity (PSR sort gate)” value was “low polyreactivity”. With “QVQLVESGGGLVHAGGSLRLSCAASGSTFWYNAMGWYRQAPGKERELVAAITWSGSRTYYSDSVKGRFTISRDNAKNTVYLQMNSLKPEDTAVYYCNRTRSFTRYDVFYGTIPAFDYWGQGTQVTVSS” the “polyreactivity (PSR sort gate)” value was “high polyreactivity”. For “QVQLVESGGGLVHAGGSLRLSCAASGSTFYQNGMGWYRQAHGQERELVAALTGDGGSTYYADSVKGRFTISRDNAKNTVSLHMNSLKPEDTAVYYCAADWTVITDSQFNSGYDYWGQGTQVTVSS”, the “polyreactivity (PSR sort gate)” value was “low polyreactivity”. For “QVQLVESGGGLVHAGGSLRLSCAASGSTLRGYVMGWYRQAPGKERELVAAITQRAGSTYYADSVKGRFTISRDNAKNPVYLQMNSLKAEDTAVYYCNVDRHYAVESGYWGQGTQVTVSS”, the “polyreactivity (PSR sort gate)” value was “high polyreactivity”. In the case of “QVQLVESGGGLVHAGGSLRLSCAASVSIFASNAMGWYRQAPGKERELVAAITSSGRTKYADSVKGRFTISRDNAKNTVYLQMNSLNPEDTAVYYCAAVYYTYFGRYDYWGQGTQVTVSS”, the “polyreactivity (PSR sort gate)” value is reported as “high polyreactivity”. In the case of “QVQLVESGGGLVHAGGSLRLSCAAYGRTFYTYAMGWYSQAPGKVRELVAAISSSGSTYYADSVKGRFTISRDNAKYTVYLQMNSLKPEDTAVYYCNARTSRYRRGGDSWGQGTQVTVSS”, the “polyreactivity (PSR sort gate)” value is reported as “high polyreactivity”. In the case of “QVQLVESGGGLVHAGGSLRLSCADSGSIFGWYVMGWYRQAPGKVREFVAAISSVGSTYYADSVKGRFTISRDNAKNTVSLQMNSLKPEDTAVYYCAKLRYPYLFWDDSEYWGQGTQVTVSS”, the “polyreactivity (PSR sort gate)” value is reported as “low polyreactivity”. In the case of “QVQLVESGGGLVHAGGSLRLSCAGSGSTFRPYAMGWYRQAPGKERELVAAIRKIGGRTYYADSVKGRFTISRDNAKNTVYLQMNSLKPEDTAVYNCNKRIGGGVHAYNYWGQGTQVSVSS”, the “polyreactivity (PSR sort gate)” value is reported as “low polyreactivity”. For “QVQLVESGGGLVHAGGSLRLSCPASGRIFPHYAMGWYRQAPGKEREMVAAISGRGGNTYYADSVKGRFTISRDNAKNTVYLQMNSLKPEDTAVYYCAADVSWRPSWGYDYWGQGTQVTVSS”, the “polyreactivity (PSR sort gate)” value was “high polyreactivity”. For “QVQLVESGGGLVHAGGSLRLSFAASGRTFVNNAMGWYRQAPGKERELVAAITGSCGSTYYADSVKGRFTISRDNAKNTFYLQMNSLKPEYTAVYYCAKRHVGSRYLFDYWGQGTQVTVSS”, the “polyreactivity (PSR sort gate)” value was “low polyreactivity”. In the case of “QVQLVESGGGLVHAGGSLRLSSAASGRISLSNAMRWYTQAPGKETEFVAAITKRSDRTYYADSVKGRFTNSRDNAKNPVYLQMNSLKPEETAVYYCGAKPLFGTRDDYWGQGTQVTVSS”, the “polyreactivity (PSR sort gate)” value is reported as “low polyreactivity”. For “QVQLVESGGGLVHAGGSLRLSSSASGSTFPVYAMGWYRQAPGKQRELVAAITSGVSTNYADSVKWRFTISRENAKNTVYLQMNSLKPEDTAVYYCAKDFGLLPIRDDYWGQGTQVTVSS”, the “polyreactivity (PSR sort gate)” value was “low polyreactivity”. With “QVQLVESGGGLVHAGGSLSLSCAASGPIFGSYGMGWYRQAPGKERELVAAISYSGGRTFYADSVKGRFTISRDNAKNNVYLQMNSLKPEDTAVYYCNKRYIPSYMSHLDYWGQGTQVTVSS” the “polyreactivity (PSR sort gate)” value was “high polyreactivity”.
